Two molecules from paper doi:10.1101/2025.01.22.634229, “Computationally designed stem-epitope mimetics elicit broadly reactive antibodies” (bioRxiv, 2025) can be followed below.

The term Kd denotes a measure of binding affinity in units of concentration. A high value points to a looser complex.

Common to all, as to conditions: both partners purified
One assay addresses T1, FI6-focused_03 (synthetic design on Bacteroides …).
T1 construct: also called FI6-focused design_03; design_03 scaffold; source: E. coli BL21 (DE3), purified (Ni-NTA, SEC)
T1 chain: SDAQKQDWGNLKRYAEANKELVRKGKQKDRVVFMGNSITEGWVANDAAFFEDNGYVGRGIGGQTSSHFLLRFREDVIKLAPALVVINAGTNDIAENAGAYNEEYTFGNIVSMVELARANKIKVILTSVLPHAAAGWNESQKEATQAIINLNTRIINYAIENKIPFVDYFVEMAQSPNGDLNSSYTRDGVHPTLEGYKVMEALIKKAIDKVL
In words: SPR. (In SPR one partner is held on a chip, and binding of the other changes the refractive index at the surface.)

A further assay addresses T2, FI6-focused_04 (synthetic design on Bacteroides …).
T2 construct: also called FI6-focused design_04; FI6-focused design; source: E. coli BL21 (DE3), purified (Ni-NTA, SEC)
T2 chain: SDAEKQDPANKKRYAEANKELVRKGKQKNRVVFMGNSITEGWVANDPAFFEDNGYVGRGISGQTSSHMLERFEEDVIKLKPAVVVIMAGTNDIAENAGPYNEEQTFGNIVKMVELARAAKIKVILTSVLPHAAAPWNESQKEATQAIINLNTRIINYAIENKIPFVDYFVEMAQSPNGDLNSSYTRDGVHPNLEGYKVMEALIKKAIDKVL
In words: SPR; Biacore 8K, HBS-EP+; ligand on a CM5 chip by amine coupling, named FI6 Fab in the legend of Figure 2A and 2D (the methods say IgG); monomeric design as analyte (62.5 nM to 7.8 nM for FI6-focused_04; 5 μM to 312.5 nM for stem-mimetic_01); 1:1 Langmuir fit.

The target in another assay is T3, stem-mimetic_01 (synthetic design on Mus musculus ApoE …, chimera).
T3 construct: source: E. coli BL21 (DE3), purified (Ni-NTA, SEC)
T3 chain: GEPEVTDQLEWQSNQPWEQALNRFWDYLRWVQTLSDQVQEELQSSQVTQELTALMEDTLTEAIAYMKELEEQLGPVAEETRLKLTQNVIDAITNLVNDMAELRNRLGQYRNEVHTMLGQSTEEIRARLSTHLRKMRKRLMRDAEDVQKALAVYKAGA
Described as above.

B1: FI6 antibody (IgG) (antibody, V domains shown)
VH: QVQLVESGGGVVQPGRSLRLSCAASGFTFSTYAMHWVRQAPGKGLEWVAVISYDANYKYYADSVKGRFTISRDNSKNTLYLQMNSLRAEDTAVYYCAKDSQLRSLLYFEWLSQGYFDYWGQGTLVTVSS
VL: DIVMTQSPDSLAVSLGERATINCKSSQSVTFNYKNYLAWYQQKPGQPPKLLIYWASTRESGVPDRFSGSGSGTDFTLTISSLQAEDVAVYYCQQHYRTPPTFGQGTVEIK
notes: also called FI6 Ab; source: Expi293, purified (protein A, SEC)
As for B1, in the assay with FI6-focused_03, the Kd was determined as 0.26 nM.

B2: FI6 Fab (Fab, V domains shown)
VH: B1 VH
VL: B1 VL
Take B2: the Kd in the assay with FI6-focused_04 came out at 6 nM; with stem-mimetic_01 it was 44 nM.
